Reference: patent US20170067044A1

Biological target: streptavidin (recombinant, with Ni-affinity tag) (UniProt P22629)
Assay: PLISA on immobilized streptavidin, binding through biotin

Sequence of streptavidin (recombinant, with Ni-affinity tag) (P22629 37-163 limits assumed): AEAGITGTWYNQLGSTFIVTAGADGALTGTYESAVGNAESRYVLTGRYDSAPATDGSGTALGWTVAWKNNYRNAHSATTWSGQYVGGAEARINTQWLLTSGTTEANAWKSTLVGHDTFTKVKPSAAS

biotinylated form of M13LuxABElink-SompbioVII3 (luciferase-encoding M13 phage exposing a biotinylated BirA-substrate polypeptide as part of capsid protein VII) (from UniProt P69533 1-33)
smallest amount of streptavidin detected (pg loaded in the well): 1
